Test results as given in a protein production outcome set (Wang et al. 2014).

Test: label from the status in PepcDB records

## MADSTAMADAIWFGGPIVTIDAHTPSARAVAVRDGRIMAVGREHAVLRYRGPDTRMHDLRGATLLPGFVDAHSHVSTVGLEHHHHHH
  protein production: failed

## MKIKILAVLAVVTVIVVSMFMREKREDPSSLVMMNVEALATGEGTSPAICVGTGSVVCPNDGSKVLYYR
  protein production: failed

## SGKVILITGASRGIGLQLVKTVIEEDDECIVYGVARTEAGLQSLQREYGADKFVYRVLDITDRSRMEALVEEIRQKHGKLDGIVANAGMLEPVKSISQSNSEHDIKQWERLFDVNFFSIVSLVALCLPLLKSSPFVGNIVFVSSGASVKPYNGWSAYGCSKAALNHFAMDIASEEPSDKVRAVCIAPGVVDTQMQKDIRETLGPQGMTPKALERFTQLYKTSSLLDPKVPAAVLAQLVLKGIPDSLNGQYLRYNDERLGPVQG
  protein production: not failed

## MADLFDGMKRRMDALIAERFGMKVNINGTDCIVVESDFLAELGPVEGNGKNVVVFSGNVIPRRGDRVVLRGSEFTVTRIRRFNGKPQLTLEENNGGKGA
  protein production: not failed

## SLGVQPPNFSWVLPGRLAGLALPRLPAHYQFLLDLGVRHLVSLTERGPPHSDSCPGLTLHRLRIPDFCPPAPDQIDRFVQIVDEANARGEAVGVHCALGFGRTGTMLACYLVKERGLAAGDAIAEIRRLRPGSIETYEQEKAVFQFYQRTK
  protein production: not failed

## MKVSDILTVAIRLEEEGERFYRELSEHFNGEIKKTFLELADQERIHAEIFRKMSDQENWDEVDSYLAGYAFYEVFPDTSEILRRKDLTLKEVLDIAISVEKDSIILYYELKDGLVNSDAQKTVKKIIDQEKEHLRKLLEMKREST
  protein production: not failed

## MSISWSMSRNMFKLAHISDVHLGPLPRLSIQELFSKRITGFVNWHRNRRKHLFASTLDLLLDDIRTHRADHLAVTGDLVNLASGIEIRAAAAWLRALGDPADTSVVPGNHDAYVPGAYEKSMRAWYDYVRGDLAPPQWQEDRRIFPYLRVRDKVAIVGCSTAVATPPFAASGFFSARQARDTVNMLRAAGEAGLFRVVMIHHPPIRGATAFHKRMIGIRRFAAVISTGGAELVLHGHTHLNTLHWLRGQVQPVPVVGIASASQGPGSIKPPAAYNLFSIDGAPGAWELTGERFSLNRTGDAMMPESVDIFAPLEHHHHHH
  protein production: failed

## MIVFVRFNSSYGFPVEVDSDTSIFQLKEVVAKRQGVPADQLRVIFAGKELQNHLTVQNCDLEQQSIVHIVQRPQRKSHETNASGGDKPQSTPEGSIWEPRSLTRVDLSSHILPADSVGLAVILDTDSKSDSEAARGPAAKPTYHSFFVYCKGPCHKVQPGKLRVQCGTCRQATLTLAQGPSCWDDVLIPNRMSGECQSPDCPGTRAEFFFKCGAHPTSDKDTSVALNLITNNSRSIPCIACTDVRNPVLVFQCNHRHVICLDCFHLYCVTRLNDRQFVHDAQLGYSLPCVAGCPNSLIKELHHFRILGEEQYNRYQQYGAEECVLQMGGVLCPRPGCGAGLLPEQGQRKVTCEGGNGLGCGFVFCRDCKEAYHEGECDSMFEASGATSQAYRVDQRAAEQARWEEASKETIKKTTKPCPRCNVPIEKNGGCMHMKCPQPQCKLEWCWNCGCEWNRACMGDHWFDV
  protein production: failed

## MRSQPTVSVIVPARNEAGNIAAAVERLPELGAETELIFVEGHSRDQTWETIEQTVAEYQGPLKLLACRQTGKGKADAVRLGFDKASGDILMILDADLTVQPEDLGHFYRAIASGRGEFINGSRLVYPRSRLAMPGLNTLANRTFALIFSFLLGQPLKDTLCGTKVLWKTDYDRVAAGRKYFGDFDPFGDFDLLFGAAKLGLEIVEVPVRYQERSYGSSNIAHVREGLILARMCLYAAGKLKFPLEHHHHHH
  protein production: failed

## MKAPRLIGAEIFRHSSYGRWHPLRVPRVSTVMDLSRAMGWLPPAQFITAPRAKPKALLAWHTADYIAALQRVEATQEATPHDTQRHDIGTVTNPVYPEIFRRPATAAGGSLLAGELLREGGIIYNPPGGTHHGMPDRANGFCYLNDPVLAMLSLRRNGVQRIAYVDIDAHHCDGVAAGFHGDPQCLMISVHEEGLWPRTGLLEDTAGGAGLNLPVPRGLNDTEMAYIRDRLILPQVEAFRPDAVVLLCGADGVEEDPLAHLCLSNNAHWAVTKALMGIAPRMLVLGGGGYNPWSVGRLWTGVWATLNGHDIPDRLPPEAQAVLRALRFEGNRRGKNPPEHWFTTLRDAPRPGPVRSDITDRVAELSRKAARLRLDH
  protein production: failed

## MFNESDAPQPPKVLSTPLEIAANLRQLQESHDPLIITFHDRSHRFQSYVVHVDRESNTLALDEMIPRDGEKFIENGEHFRVEGFHDGVRIAWECDHALKISEVDGHRCYSGPLPQEVTYHQRRNAFRAALKLSQLVDIILDGAHLKGNGAMRGKLLDISATGCKLRFEGNVEDRLQLGQVYERFKAGNPLGLVDTMVELRHLHYEERINTTFAGVRFHNLSGQAQRKIESFVYQLQREARRFDKDDY
  protein production: not failed

## MTNFQRARSEEQRAVRRQAILDTTAAMLEEMPVGEVSLNELSRRVGLAKSNVLRYFESREAILLELLDRAWQQWVADLPALVHAGVDQGAPVSRRAEQFAAVIAASLAGRQVLCDLLSAQAGVLEHNVSPQVAARYKRAAVANVADIAALAHQHLPELGASAPQLTAVMIMAVGAVWTHARPSPAMLSAYEADPSLTAFKLDFVTTLQEMLATLTAGTIARESA
  protein production: not failed

## MPHKLLPWLAIASAMSAFTLQAQPMPDTELLMGSYTQGKSEGIYRFGFNSQTGLIDAKPLQVIKSDNPSWLTLSKDQRHLFAVNENGPGQKDVVGKVSSFAIDPKTRQITPINQVQSRGEEPTHSSLSYDGRYLFVANYAVNPDPGGALTVVPVGKDGTLSEAVQVLPLGPGSKVNSERQLSSHVHLAVPTPDNKYVVSADLGADKLFVYRYDANQAKPLQPAKVPTVQLPGGSGPRHTLFSADGKHAWLVLEMTAQVAVFDYHDGGFKQTQLVDMKNKGVEEKNGGGALHTSPDGKFLYVTNRGDANQVVVFRIDQASGKLEEIQRRSLEGKEPREFAFDPTGKFMLFANQKSNQIVTVRRDPQSGMIGDTVQKFDADSPSYLRFLTEK
  protein production: failed

## MQRANREHLEIISLEEISMLVSSDFDLPEVLQHVTAKVATQLKVSVCNIYLREGDEVVLAATHGFDPAFIGKIRIKIGDGITGSVARDGQYISLSRASQDPRYRYFPELQEEKYNSMLSFPIGDKKEVYGVINLNTTSIRSFHEDEIYFVSIIANLILTAIKLRQQVASSRKAAEA
  protein production: not failed

## MKLSLRYVLNQFLSTNLSIFFVLFAIVSMVFFIQLAKLTSSIEISFLDLLKLYGFMLPRILIFTLPISFFISLTLALFRLSKENESIVLFTLGFSPMILAKFFLKIASLISAFMLVVALVMIPIVFELQDNFVNYKSTQVKFNYKTGEFGQKFLDWMIFIEKQDSDKYENIIMYRPKHKADDKEQLIIAKEAHVQRKDDSFAFSLNQGKMYNFEQGQSIFSGEFDTLVVNTQFNTDNLQTKKFYEYWNDLNENPQRAREFVIYTTIALFPLASTLFALCFGLVTYRYEKGYVYLGMFGVIAIYFGLLSSFSQPPILACLGIFSLSLFVSAYCFKKMILSRY
  protein production: failed

## MSKIGRNDPCPCGSGKKYKQCCFHRATSAAATPDAEMLWRAGNAHLAGGALDMALSCYREAVRLRPGFAQAHYNLGVVFQQKGLLDEAAASFRSAISFNRDYAKAYNNLGYILATQGRLDESADCFNRAIAIEPGFAAAYHNLGTTLRHQGRLDETLAAFRTAHAINPHDPVFHSDLLMMLHYSDMDDETLFREHVRWGEQHAPAAASVPTHQCDRDPGRKLRIGYVSGDFGKHPVGYFLLPFLENHDRSQFEICCYSERGQRQEDDVTARIKGHADLWRRTIGLGDAAVAEMIRADGIDILVDLAGHTAHNRLRVFALKPAPVQVTWLGYPNTTGLRAMDYRITDAVADPPGSADALHTEQLIRLEQGFLCYTPPAGAPPVGEAPCLAGAGVTFGSFNNLAKVSPQVIDAWSAILGRVPGSRLMLKFKGFADETCRRRVSDAFGARGVSPDRLELVSFVENFNDHLALYNRLDLALDTFPYNGTATTCDALWMGVPVLTCCGTRHVARVGASILTSLGLPELITHSPEEYISAAAALAADPARLAALRRDMRPRLAASPLCDPTGFARRMETALRDIWRRWCSA
  protein production: failed

## YCVRGEKLVLFVTGVCPRNCFYCPLSPWRRKDVAYANERPIRKIEDIIEEAKIQEARGAGVTGGDPLARLNRTVEYIRTLKEEFGKKFHIHLYTTGILADKRALSMLYDAGL
  protein production: failed

## EKVDLQYAAYEPKKLQSGNKNPLIIWLHGQGEGGTDPDITLLGNKVTALIKEDIQNHFKSGNQKGTYVLTVQAPTYWMDEGDGSNGQGAGTSRYTEVLMDAIKKYVAKIT
  protein production: failed

## MEPVLTTKDLKHNYVDGSAELLRDPELVDPPFQVSRCAGNNRDLQTGQRSSGCVVTEIVYLSDSPYSSLNLVLRYPTTPAYPSRHFFSGLGHQMRMLSKLRFTLRSPLGLRRQPAPPPPLLVRVSLSSEPGVFIKMDLKDPASLLDLAMQCLLKNEPIIIQSLEEIPRELLIPLFCAAFLGGHKKTLTAIVKVWPFFCLHVGKLRSHETHSALLKAMIDGLQVLPAPNSASRGSKLKILDLRQDANCRTTCFPIRTKSPFCFHSCSYTQTSSRKRKGKHSTVNLGSEVQLSRYPTELLVDLSLDGTLRTSTFLSLLLSKVEQSSGALHLCCRDLQVDKLSDYNNTLKLLNLLCIDHLAVDQASLNDINTLLSQMVHLDSLSLSKITLTSLNAKIFKSFLTQLERMDNLQELNLSFFCLTNRLHKLLRVLPHDLDYLNLPFCELSYRDFRFLSQCPQAAHLKLLNLSNNPISWEDCEPLQTLMENVSGTLQHLEINHCLITDSTIFSLLPALSHCSHLRVLSFASNPITMSMLMRVLENLLPLMELKYVIYPIPVHCYERWYFQGTLDRQKLADVQVQLKAMLQAAQRGDMNWITFSE
  protein production: failed

## MAPSCLKMAHMRLLLTSFGHDHIRDFVRGTVAYIPDATRLFADSPEAAPFMETERNMLREHGLSIRELPISTSTPEEVDRVLGEVDGVYVAGGETFDLMWLLRSTGNDEVLIKHVRAGLPYIGTSAGAVIAGPSIEPISFLDSPDVAPNLSDYSGLGLCEHVVVPHAGGTIPQFPIDVFAETVRTYGAEFPLVLLKDGQALLIDDHGVHLILEHHHHHH
  protein production: not failed

## MSLSYVHTEIQNDALYITLDYPEKKNGLDAELGTSLLEAIRAGNNETSIHSIILQSKHRAYFSSGPRLEDLLICASDQSDVRLREVLHVLNHCVLEIFTSPKVTVALINGYAYGGGFNMMLACDRRIALRRAKFLENFHKMGISPDLGASYFLPRIIGYEQTMNLLLEGKLFTSEEALRLGLIQEICENKQELQERVKNYLKAVSEGYVPAIAATKKLLKGKAAEELKQQLEQETEELVALFKQTEIKKRLEALVEGHHHHHH
  protein production: not failed

## MRAAFLIGILAAMGALTQGGSISETVGAGLIDGATITSLAAVAGLLTATGFMAFGIYSGYPVPAAFATTGAMVGVGLSLGGQPVFDTYRRIATFWLLVPPVSGSLAYLTATVLRRDDIPETVGVPLLAGVVGGIVANVQLSIIPSPAGTDQGSLAGFAAMVAGTDIAAVATTLLVAAGSFYYIRRQTQASVDKGIKTFLVVLGSVVAFSSGGSQVGLATGPLENLYRAELGLPGFVLLALGAVGILGGAWMGAPRLLQATSREYAQLGVRRSIAALVPGFIIAQAAIALGIPISFNNIIISGVIGGGLAGGSAGVSRRKIGVTVGFWLITLVTSVVIGFGVYQVLEAALGSQV
  protein production: failed

## SDNEFPDFDYQTVYFANQYGLRTIELGESEFVDNTLDNQHKMVIKAAWGGGYTNRNNVVINFKVDESLCDNLYFKDTDQPLVPMPASYYTLASDRIAIPKGQIMAGVEVQLTDDFFADEKSISENYVIPLLMTNVQGADSILQGKPVVENPVLTNAGDWSILPQNFVLYAVKYVNPWHGEYLRRGIDHATVAGTSKDIIRHEQFVENDEVVNISTKSMKDNLLTLKTKDESGKDISYTVRLSFAEDGSCTVHSGSQNVVVSGSGKFVSKGEKNSLGGKDRNAIYLDYTVNLTDNNIQLATKDTLVLRTRNVYGGKSLEVVRK
  protein production: not failed
